The target of the assay is T1, mouse CD137-Fc chimeric protein (mouse), P20334.
T1 chain: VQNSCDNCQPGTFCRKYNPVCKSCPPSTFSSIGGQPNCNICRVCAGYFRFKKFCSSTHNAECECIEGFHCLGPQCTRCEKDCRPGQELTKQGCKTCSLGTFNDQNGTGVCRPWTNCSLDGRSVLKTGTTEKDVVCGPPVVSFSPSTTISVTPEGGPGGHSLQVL
The experiment in a line: SPR, CD137-Fc captured, binder injected. The settings on record: remark: other sources report otherwise.

Kd, koff and kon data for one molecule are collected here from EP3470426A1.

B1: PRO963 (protein)
chain: DIQMTQSPSSLSASVGDRVTITCQASQSINDYLAWYQQKPGKAPKLLIYKASTLASGVPSRFSGSGSGTDFTLTISSLQPEDFATYYCQQGYIITDIDNVFGTGTKVTVLGGGGGSQVQLQESGPGLVKPSETLSLTCKVSGFSFSNSYWICWIRQPPGKGLEWIGCTFVGSSDSTYYANWAKGRVTISVDSSKNQFSLKLSSVTAADTAVYYCARHPSDAVYGYANNLWGQGTLVTVSSGGGGSGGGGSGGGGSGGGGSIQMTQSPSSLSASVGDRVTITCQASQSINNVLAWYQQKPGKAPKLLIYRASTLASGVPSRFSGSGSGTDFTLTISSLQPEDFATYYCQSSYGNYGDFGTGTKVTVLGGGGGSQVQLQESGPGLVKPSETLSLTCKVSGFSFSSGYDMCWIRQPPGKGLEWIGCVVAGSVDITYYASWAKGRVTISVDSSKNQFSLKLSSVTAADTAVYYCARKDAYSDAFNLWGQGTLVTVSSGGGGSGGGGSIQMTQSPSSLSASVGDRVTITCQSSESVYSNNQLSWYQQKPGQPPKLLIYDASDLASGVPSRFSGSGSGTDFTLTISSLQPEDFATYYCAGGFSSSSDTAFGGGTKLTVLGGGGGSGGGGSGGGGSGGGGSEVQLVESGGGLVQPGGSLRLSCAASGFSLSSNAMGWVRQAPGKGLEYIGIISVGGFTYYASWAKGRFTISRDNSKNTVYLQMNSLRAEDTATYFCARDRHGGDSSGAFYLWGQGTLVTVSS
For the molecule B1, the Kd was found to be 170 nM, the koff stood at 0.059 s⁻¹ and the kon was found to be 350000 M⁻¹ s⁻¹.
